Values quoted from earlier work, collected in article PMC9731471.

Target: podoplanin (Homo sapiens) (UniProt Q86YL7)

CLEC-2 (from UniProt Q9P126)
Kd: 24 µM
